In paper PMC2810336, “Mutational Analysis of Highly Conserved Residues in the Phage PhiC31 Integrase Reveals Key Amino Acids Necessary for the DNA Recombination”:

Experiments:
Assay in all cases: EMSA; 400 nM protein; 50 ng/ul Poly (competitor (so in the source)), 0.05% NP-40, 50 mM KCl, 5 mM MgCl2, 10 mM EDTA, 20 ul, 0.4 ng (16 fmol) probe; 30 min at room temperature (Methods) or 30 C; pH not stated; synapsis 2 h at 30 C
Conditions in all cases: protein: recombinant; tags: C-terminal His; chain copies: 2; label: biotin, double-strand end-labeled; blunt
[1] = target: T1, phiC31 integrase C376A/G377A (Streptomyces phage phiC31, UniProt Q38194 1-613, C376A;G377A)
T1 sequence: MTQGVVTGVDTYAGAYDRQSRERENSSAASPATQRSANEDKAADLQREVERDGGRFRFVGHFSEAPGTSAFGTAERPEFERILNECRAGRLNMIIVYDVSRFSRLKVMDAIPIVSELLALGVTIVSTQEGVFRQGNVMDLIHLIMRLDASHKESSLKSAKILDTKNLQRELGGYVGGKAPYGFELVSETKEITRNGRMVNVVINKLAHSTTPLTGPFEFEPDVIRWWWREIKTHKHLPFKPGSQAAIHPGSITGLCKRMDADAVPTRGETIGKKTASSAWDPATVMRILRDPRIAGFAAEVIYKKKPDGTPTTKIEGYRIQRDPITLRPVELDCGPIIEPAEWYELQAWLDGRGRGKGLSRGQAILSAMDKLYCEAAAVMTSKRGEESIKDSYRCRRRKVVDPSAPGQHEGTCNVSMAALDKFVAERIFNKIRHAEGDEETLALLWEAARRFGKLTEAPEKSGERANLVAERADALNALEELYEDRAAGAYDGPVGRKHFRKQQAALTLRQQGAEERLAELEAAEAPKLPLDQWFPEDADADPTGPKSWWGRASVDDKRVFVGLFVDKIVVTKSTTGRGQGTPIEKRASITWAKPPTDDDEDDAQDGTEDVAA

[2] = target: T2, phiC31 integrase C374A (Streptomyces phage phiC31, UniProt Q38194 1-613, C374A)
T2 sequence: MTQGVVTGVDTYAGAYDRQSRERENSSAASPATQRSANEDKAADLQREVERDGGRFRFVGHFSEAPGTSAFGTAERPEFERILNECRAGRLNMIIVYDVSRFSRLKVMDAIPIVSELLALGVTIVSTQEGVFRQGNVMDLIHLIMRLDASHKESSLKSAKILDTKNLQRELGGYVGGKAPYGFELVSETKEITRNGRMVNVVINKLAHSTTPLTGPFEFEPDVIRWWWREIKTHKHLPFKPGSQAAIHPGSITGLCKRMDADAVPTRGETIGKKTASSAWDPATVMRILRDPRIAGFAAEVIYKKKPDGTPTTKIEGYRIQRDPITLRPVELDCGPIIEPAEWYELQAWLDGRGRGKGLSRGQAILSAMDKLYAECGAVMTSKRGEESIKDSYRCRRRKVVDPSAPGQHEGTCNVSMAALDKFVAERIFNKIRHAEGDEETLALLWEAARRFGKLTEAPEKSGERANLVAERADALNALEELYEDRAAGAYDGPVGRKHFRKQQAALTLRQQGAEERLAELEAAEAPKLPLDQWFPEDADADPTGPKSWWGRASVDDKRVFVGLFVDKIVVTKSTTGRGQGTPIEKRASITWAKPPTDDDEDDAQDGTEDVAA

[3] = target: T3, phiC31 integrase Y393A (Streptomyces phage phiC31, UniProt Q38194 1-613, Y393A)
T3 sequence: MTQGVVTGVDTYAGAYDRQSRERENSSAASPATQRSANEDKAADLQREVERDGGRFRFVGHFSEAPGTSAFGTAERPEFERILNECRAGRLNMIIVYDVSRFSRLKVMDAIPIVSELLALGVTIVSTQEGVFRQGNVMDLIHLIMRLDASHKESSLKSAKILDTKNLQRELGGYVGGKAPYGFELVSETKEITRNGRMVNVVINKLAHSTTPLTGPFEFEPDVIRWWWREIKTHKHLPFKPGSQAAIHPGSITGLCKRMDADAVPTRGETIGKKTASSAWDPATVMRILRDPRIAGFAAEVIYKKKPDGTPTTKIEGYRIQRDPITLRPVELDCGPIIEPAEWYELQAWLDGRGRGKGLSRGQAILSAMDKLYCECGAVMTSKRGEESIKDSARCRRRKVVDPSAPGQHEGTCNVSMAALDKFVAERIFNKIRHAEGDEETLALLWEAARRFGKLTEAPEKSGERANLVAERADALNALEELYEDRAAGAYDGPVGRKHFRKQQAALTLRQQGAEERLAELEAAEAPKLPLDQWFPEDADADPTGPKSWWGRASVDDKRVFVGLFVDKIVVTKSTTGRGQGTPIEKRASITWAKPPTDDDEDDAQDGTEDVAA

Measured: binding signal

B1: attB 41 bp (dsDNA)
DNA 1: CGGGTGCCAGGGCGTGCCCTTGGGCTCCCCGGGCGCGTACT
DNA 2: AGTACGCGCCCGGGGAGCCCAAGGGCACGCCCTGGCACCCG
0 % of WT: all assays above
